In PMC9001700:
Where two headings read alike, the source gives them in different places.

Columns and labels:
Assay in all cases: BLI
[1] = biological target: SARS-CoV-2 stem helix peptide 1145-1167 (SARS-CoV-2)
[2] = biological target: MERS-CoV stem helix peptide (MERS-CoV)
[3] = biological target: HCoV-HKU1 stem helix peptide (HCoV-HKU1)
[4] = biological target: HCoV-OC43 stem helix peptide (HCoV-OC43)
[5] = biological target: HKU1 stem helix peptide (HCoV-HKU1)
[6] = biological target: MERS-CoV stem helix peptide (MERS-CoV); remark: listed apart in the source
[7] = biological target: SARS-CoV-2 stem helix peptide 1145-[…]-1167 (SARS-CoV-2)
[8] = biological target: OC43 stem helix peptide (HCoV-OC43)

## CV3-25 Fab
[1]
  Kd: 5.2 nM
[2]
  Kd: 20 nM
[3]
  Kd: 31 nM
[4]
  Kd: 40 nM
[5]
  Kd: 31 nM
  koff: 0.000676 s⁻¹
  kon: 23000 M⁻¹ s⁻¹
[6]
  Kd: 20.4 nM
  koff: 0.000669 s⁻¹
  kon: 33000 M⁻¹ s⁻¹
[7]
  Kd: 5.23 nM
  koff: 0.000159 s⁻¹
  kon: 30000 M⁻¹ s⁻¹
[8]
  Kd: 39.3 nM
  koff: 0.000613 s⁻¹
  kon: 17000 M⁻¹ s⁻¹
